The text below walks through data of publication PMC12118398.

The target in this assay is FXR1-CFP (human). Put plainly: FRET or BRET. Background: BRET reads energy transfer from a luciferase to a nearby fluorophore.

FXR1-CFP (natural protein), sequence (P51114 2-621): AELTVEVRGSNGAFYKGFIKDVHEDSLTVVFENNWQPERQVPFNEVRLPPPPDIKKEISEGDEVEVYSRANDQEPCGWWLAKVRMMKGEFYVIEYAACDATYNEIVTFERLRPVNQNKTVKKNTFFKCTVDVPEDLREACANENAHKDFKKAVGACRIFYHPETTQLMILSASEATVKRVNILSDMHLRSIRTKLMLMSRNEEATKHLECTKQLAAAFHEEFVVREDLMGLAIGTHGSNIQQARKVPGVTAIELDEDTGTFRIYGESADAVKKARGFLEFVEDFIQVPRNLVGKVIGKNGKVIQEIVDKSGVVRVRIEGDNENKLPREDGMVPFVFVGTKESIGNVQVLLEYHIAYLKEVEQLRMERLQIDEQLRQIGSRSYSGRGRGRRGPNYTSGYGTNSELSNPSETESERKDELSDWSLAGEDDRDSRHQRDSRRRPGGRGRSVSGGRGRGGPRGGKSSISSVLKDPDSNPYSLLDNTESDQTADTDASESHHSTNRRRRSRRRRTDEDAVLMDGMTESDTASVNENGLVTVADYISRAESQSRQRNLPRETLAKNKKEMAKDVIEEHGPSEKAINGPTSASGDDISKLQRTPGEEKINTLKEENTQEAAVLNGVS
SFPQ-YFP (natural protein), sequence (P23246 whole entry): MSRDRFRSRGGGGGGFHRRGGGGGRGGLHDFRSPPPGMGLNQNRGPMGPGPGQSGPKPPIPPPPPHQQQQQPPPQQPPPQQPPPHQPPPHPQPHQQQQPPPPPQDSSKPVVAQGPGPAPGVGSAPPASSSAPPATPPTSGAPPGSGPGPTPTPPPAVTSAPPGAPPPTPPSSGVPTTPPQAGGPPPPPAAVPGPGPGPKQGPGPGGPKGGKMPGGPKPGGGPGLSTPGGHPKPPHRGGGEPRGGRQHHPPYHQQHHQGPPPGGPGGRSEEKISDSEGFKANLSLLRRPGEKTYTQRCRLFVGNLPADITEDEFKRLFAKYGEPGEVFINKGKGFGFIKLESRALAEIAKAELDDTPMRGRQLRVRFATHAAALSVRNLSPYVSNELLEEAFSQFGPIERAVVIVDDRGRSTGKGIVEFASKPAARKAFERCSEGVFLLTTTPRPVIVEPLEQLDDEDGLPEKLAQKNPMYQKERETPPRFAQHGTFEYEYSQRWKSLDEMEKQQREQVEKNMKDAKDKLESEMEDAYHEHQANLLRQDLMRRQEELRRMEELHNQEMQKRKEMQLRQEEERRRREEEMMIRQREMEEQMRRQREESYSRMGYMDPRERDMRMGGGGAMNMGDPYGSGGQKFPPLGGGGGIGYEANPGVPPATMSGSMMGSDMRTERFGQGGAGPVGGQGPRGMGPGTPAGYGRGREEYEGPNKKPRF
YFP-FXR2_(14-399), sequence (P51116 14-399): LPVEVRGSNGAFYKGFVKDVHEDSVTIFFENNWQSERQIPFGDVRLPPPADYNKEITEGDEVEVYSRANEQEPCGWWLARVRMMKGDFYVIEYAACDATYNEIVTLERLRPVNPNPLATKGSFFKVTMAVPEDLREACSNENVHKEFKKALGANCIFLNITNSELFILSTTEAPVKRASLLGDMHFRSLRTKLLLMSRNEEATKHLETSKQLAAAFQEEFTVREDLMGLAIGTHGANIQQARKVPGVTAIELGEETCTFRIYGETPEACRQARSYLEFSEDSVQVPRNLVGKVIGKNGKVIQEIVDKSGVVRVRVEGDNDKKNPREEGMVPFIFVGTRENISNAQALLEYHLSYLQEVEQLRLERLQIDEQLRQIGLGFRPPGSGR

With FXR1-CFP (natural protein), the FRET efficiency turned out to be 8.9%.

SFPQ-YFP (natural protein) gave an FRET efficiency of 9.1%.

In the case of “YFP-FMRP_(1-380) (from UniProt Q06787 1-380) (domain or fragment)”, the FRET efficiency was determined as 9.7%.

Regarding “YFP-FXR2_(14-399) (from UniProt P51116 14-399) (domain or fragment)”, the FRET efficiency was found to be 8.3%.
